The results in this text go back to PMC6141617 (Nature Communications, 2018).

The data set “crystal structure” deals with the molecule itself. As to the kind of experiment: crystal structure.
Another data set deals with T1, 14-3-3β (purified alone) (human, UniProt P31946 1-239).
T1 construct: also called YWHAB (pTvHR21-SGC)
T1 sequence: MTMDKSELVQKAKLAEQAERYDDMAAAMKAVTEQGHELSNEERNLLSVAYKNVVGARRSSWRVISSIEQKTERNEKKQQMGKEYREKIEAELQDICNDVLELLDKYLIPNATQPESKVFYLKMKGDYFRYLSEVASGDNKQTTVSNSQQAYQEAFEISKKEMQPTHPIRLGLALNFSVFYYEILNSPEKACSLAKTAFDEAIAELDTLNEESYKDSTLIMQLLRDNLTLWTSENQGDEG
As to the kind of experiment: fluorescence polarisation. The following applies: both partners purified.

As usually defined, the stoichiometry N is the number of molecules, sites or subunits per partner or assembly. One may read the Kd as the free concentration of one partner at which half of the binding sites on the other are occupied at equilibrium, for simple one-to-one binding. A higher Kd goes with weaker binding.

B1: 14-3-3β^1–239 (untagged, first co-expression construct) (natural protein)
chain: T1 sequence
Take B1: the “stoichiometry N” value in the data set “crystal structure” came to 2.

B2: 14-3-3β truncated after N234 (untagged, re-designed co-expression construct) (domain or fragment, human, UniProt P31946 1-234, looked up)
chain: MTMDKSELVQKAKLAEQAERYDDMAAAMKAVTEQGHELSNEERNLLSVAYKNVVGARRSSWRVISSIEQKTERNEKKQQMGKEYREKIEAELQDICNDVLELLDKYLIPNATQPESKVFYLKMKGDYFRYLSEVASGDNKQTTVSNSQQAYQEAFEISKKEMQPTHPIRLGLALNFSVFYYEILNSPEKACSLAKTAFDEAIAELDTLNEESYKDSTLIMQLLRDNLTLWTSEN
In the case of B2, in the data set “crystal structure”, the “stoichiometry N” value came to 2.

B3: GFP-ExoS^233-435 (domain or fragment)
chain: ADKALADGLVKRFGADAEKYLGRQPGGIHSDAEVMALGLYTGIHYADLNRALRQGQELDAGQKLIDQGMSAAFEKSGQAEQVVKTFRGTRGGDAFNAVEEGKVGHDDGYLSTSLNPGVARSFGQGTISTVFGRSGIDVSGISNYKNEKEILYNKETDMRVLLSASDEQGVTRRVLEEAALGEQSGHSQGLLDALDLASKPERS
Molecule B3 displayed a Kd with 14-3-3β (purified alone) of approximately 70 nM.

B4: GFP-ExoS^233-453 (domain or fragment)
chain: ADKALADGLVKRFGADAEKYLGRQPGGIHSDAEVMALGLYTGIHYADLNRALRQGQELDAGQKLIDQGMSAAFEKSGQAEQVVKTFRGTRGGDAFNAVEEGKVGHDDGYLSTSLNPGVARSFGQGTISTVFGRSGIDVSGISNYKNEKEILYNKETDMRVLLSASDEQGVTRRVLEEAALGEQSGHSQGLLDALDLASKPERSGEVQEQDVRLRMRGLDLA
B4: the Kd with 14-3-3β (purified alone) is approximately 40 nM.
